The data set “native gel or EMSA” deals with the molecule itself. The data set is described as follows: native gel or EMSA. For orientation: A gel shift assay detects complexes by their altered migration in electrophoresis.
The data set “SEC” concerns the molecule itself. As to the kind of experiment: SEC. On the technique in general: In gel filtration, larger molecules generally elute earlier.

Data on three proteins can be found in article doi:10.1101/2020.06.28.176677 (bioRxiv, 2020).

B1: glutaryl-CoA dehydrogenase (GCDH), mouse liver mitochondria (enzyme, mouse (endogenous in liver mitochondria), UniProt Q60759 45-438, looked up)
chain: RPVFDWKDPLILEEQLTADEKLIRDTFRNYCQERLMSRILLANRNEVFHRDIVYEMGELGVLGPTIKGYGCAGVSSVAYGLLTRELERVDSGYRSMMSVQSSLVMHPIYTYGSEEQRQKYLPGLAKGELLGCFGLTEPNHGSDPGGMETRARHNPSNQSYTLSGTKTWITNSPVADLFIVWARCEDNCIRGFILEKGMRGLSAPRIEGKFSLRASATGMIIMDSVEVPEENVLPNVSSLAGPFGCLNTARYGITWGVLGAAEFCLHTARQYALDRIQFGVPLARNQLVQKKLADMLTEITLGLHACLQLGRLKDQDKATPEMVSMLKRNNCGKALDIARQARDILGGNGISDEYHVIRHAMNLEAVNTYEGTHDIHALILGRAITGIQAFTVGK
As for B1, in the data set “native gel or EMSA”, the “stoichiometry N” value worked out at 4.

B2: recombinant human GCDH, unmodified (hGCDH-6xHIS) (enzyme, UniProt Q92947 45-438, looked up)
chain: RPEFDWQDPLVLEEQLTTDEILIRDTFRTYCQERLMPRILLANRNEVFHREIISEMGELGVLGPTIKGYGCAGVSSVAYGLLARELERVDSGYRSAMSVQSSLVMHPIYAYGSEEQRQKYLPQLAKGELLGCFGLTEPNSGSDPSSMETRAHYNSSNKSYTLNGTKTWITNSPMADLFVVWARCEDGCIRGFLLEKGMRGLSAPRIQGKFSLRASATGMIIMDGVEVPEENVLPGASSLGGPFGCLNNARYGIAWGVLGASEFCLHTARQYALDRMQFGVPLARNQLIQKKLADMLTEITLGLHACLQLGRLKDQDKAAPEMVSLLKRNNCGKALDIARQARDMLGGNGISDEYHVIRHAMNLEAVNTYEGTHDIHALILGRAITGIQAFTASK
As to B2, the “stoichiometry N” value in “SEC” was determined as 4.

B3: chemically succinylated recombinant human GCDH (succinyl-GCDH) (enzyme, UniProt Q92947 45-438, looked up)
chain: B2 chain
modifications: succinyl-lysine, 11 sites found by LC-MS/MS (sites shown in Supporting Figure 2G, not given)
With B3, the “stoichiometry N” value in the data set “SEC” is 4.

As usually defined, the stoichiometry N is a count of units in the complex or per binding partner.
